T1: soluble dimeric FcγRIIB (extracellular domain fused to hinge-CH2-CH3 of human IgG2) (human, UniProt P31994 43-217)
T1 construct: extracellular domain; also called FcRIIB; FcRIIB-Fc; not shown: human IgG2 hinge-CH2-CH3
T1 sequence (looked up): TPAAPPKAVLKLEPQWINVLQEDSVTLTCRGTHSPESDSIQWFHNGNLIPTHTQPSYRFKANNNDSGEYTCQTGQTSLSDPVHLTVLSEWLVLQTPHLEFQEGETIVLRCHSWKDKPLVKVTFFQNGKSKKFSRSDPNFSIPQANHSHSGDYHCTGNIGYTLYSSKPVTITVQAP


What was measured:
[1] = biological target: T1, soluble dimeric FcγRIIB (extracellular …); experiment: ELISA
[2] = biological target: T2, soluble monomeric FcγRIIIA (extracellular region joined to linker-AVITAG), allele not stated (human, UniProt P08637 17-208); experiment: ELISA
T2 construct: extracellular domain; also called FcRIIIA; CD16A; not shown: linker-AVITAG
T2 sequence (P08637 17-208): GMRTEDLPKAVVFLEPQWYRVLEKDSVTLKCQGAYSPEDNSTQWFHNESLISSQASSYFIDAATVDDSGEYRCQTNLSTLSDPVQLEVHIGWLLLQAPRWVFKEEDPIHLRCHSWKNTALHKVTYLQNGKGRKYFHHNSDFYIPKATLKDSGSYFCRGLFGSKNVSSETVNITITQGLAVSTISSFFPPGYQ

Row | Binder | binding result [1] | binding result [2] | Binding to FcγRIIB (ELISA) [1] | Binding to FcγRIIIA (ELISA) [2]
1 | IgG1 Fc mutant E269K, K290N, Q311R, H433Y (antibody) heavy: ASTKGPSVFPLAPSSKSTSGGTAALGCLVKDYFPEPVTVSWNSGALTSGVHTFPAVLQSSGLYSLSSVVTVPSSSLGTQTYICNVNHKPSNTKVDKKVEPKSCDKTHTCPPCPAPELLGGPSVFLFPPKPKDTLMISRTPEVTCVVVDVSHKDPEVKFNWYVDGVEVHNAKTNPREEQYNSTYRVVSVLTVLHRDWLNGKEYKCKVSNKALPAPIEKTISKAKGQPREPQVYTLPPSRDELTKNQVSLTCLVKGFYPSDIAVEWESNGQPENNYKTTPPVLDSDGSFFLYSKLTVDKSRWQQGNVFSCSVMHEALYNHYTQKSLSLSPGK | no binding | no binding |  | 
2 | IgG1 Fc mutant F243L, V305I, A378D, F404S, P396L (antibody) heavy: ASTKGPSVFPLAPSSKSTSGGTAALGCLVKDYFPEPVTVSWNSGALTSGVHTFPAVLQSSGLYSLSSVVTVPSSSLGTQTYICNVNHKPSNTKVDKKVEPKSCDKTHTCPPCPAPELLGGPSVFLLPPKPKDTLMISRTPEVTCVVVDVSHEDPEVKFNWYVDGVEVHNAKTKPREEQYNSTYRVVSILTVLHQDWLNGKEYKCKVSNKALPAPIEKTISKAKGQPREPQVYTLPPSRDELTKNQVSLTCLVKGFYPSDIDVEWESNGQPENNYKTTPLVLDSDGSSFLYSKLTVDKSRWQQGNVFSCSVMHEALHNHYTQKSLSLSPGK |  |  | 5.4 fold increase | 1.6 fold increase
3 | IgG1 Fc mutant F275L, Q362H, N384K, P396L (antibody) heavy: ASTKGPSVFPLAPSSKSTSGGTAALGCLVKDYFPEPVTVSWNSGALTSGVHTFPAVLQSSGLYSLSSVVTVPSSSLGTQTYICNVNHKPSNTKVDKKVEPKSCDKTHTCPPCPAPELLGGPSVFLFPPKPKDTLMISRTPEVTCVVVDVSHEDPEVKLNWYVDGVEVHNAKTKPREEQYNSTYRVVSVLTVLHQDWLNGKEYKCKVSNKALPAPIEKTISKAKGQPREPQVYTLPPSRDELTKNHVSLTCLVKGFYPSDIAVEWESKGQPENNYKTTPLVLDSDGSFFLYSKLTVDKSRWQQGNVFSCSVMHEALHNHYTQKSLSLSPGK |  |  | 3.7 fold increase | 2.2 fold increase
4 | IgG1 Fc mutant K246I, Q362H, K370E (antibody) heavy: ASTKGPSVFPLAPSSKSTSGGTAALGCLVKDYFPEPVTVSWNSGALTSGVHTFPAVLQSSGLYSLSSVVTVPSSSLGTQTYICNVNHKPSNTKVDKKVEPKSCDKTHTCPPCPAPELLGGPSVFLFPPIPKDTLMISRTPEVTCVVVDVSHEDPEVKFNWYVDGVEVHNAKTKPREEQYNSTYRVVSVLTVLHQDWLNGKEYKCKVSNKALPAPIEKTISKAKGQPREPQVYTLPPSRDELTKNHVSLTCLVEGFYPSDIAVEWESNGQPENNYKTTPPVLDSDGSFFLYSKLTVDKSRWQQGNVFSCSVMHEALHNHYTQKSLSLSPGK |  | no binding | 0.5 fold decrease | 
5 | IgG1 Fc mutant K246E, V284M, V308A (antibody) heavy: ASTKGPSVFPLAPSSKSTSGGTAALGCLVKDYFPEPVTVSWNSGALTSGVHTFPAVLQSSGLYSLSSVVTVPSSSLGTQTYICNVNHKPSNTKVDKKVEPKSCDKTHTCPPCPAPELLGGPSVFLFPPEPKDTLMISRTPEVTCVVVDVSHEDPEVKFNWYVDGVEMHNAKTKPREEQYNSTYRVVSVLTALHQDWLNGKEYKCKVSNKALPAPIEKTISKAKGQPREPQVYTLPPSRDELTKNQVSLTCLVKGFYPSDIAVEWESNGQPENNYKTTPPVLDSDGSFFLYSKLTVDKSRWQQGNVFSCSVMHEALHNHYTQKSLSLSPGK | no binding | no binding |  | 
6 | IgG1 Fc mutant K222N, T335N, K370E, A378V, T394M (antibody) heavy: ASTKGPSVFPLAPSSKSTSGGTAALGCLVKDYFPEPVTVSWNSGALTSGVHTFPAVLQSSGLYSLSSVVTVPSSSLGTQTYICNVNHKPSNTKVDKKVEPKSCDNTHTCPPCPAPELLGGPSVFLFPPKPKDTLMISRTPEVTCVVVDVSHEDPEVKFNWYVDGVEVHNAKTKPREEQYNSTYRVVSVLTVLHQDWLNGKEYKCKVSNKALPAPIEKNISKAKGQPREPQVYTLPPSRDELTKNQVSLTCLVEGFYPSDIVVEWESNGQPENNYKTMPPVLDSDGSFFLYSKLTVDKSRWQQGNVFSCSVMHEALHNHYTQKSLSLSPGK |  |  | 7 fold increase | 1 fold increase
